The values below come from US20200405759A1 (UCL BUSINESS, published 2020).

The test deals with T1, human ROR1-Fz domain with Q(261)H and I(254)V (human, UniProt Q01973 165-299).
T1 construct: domain: Fz; it is not clear whether the construct was Fz only or a longer ROR1
Briefly: antibody binding to point mutants of human ROR1, FIG. 7.

T1 sequence (Q01973 165-299 I254V/Q261H): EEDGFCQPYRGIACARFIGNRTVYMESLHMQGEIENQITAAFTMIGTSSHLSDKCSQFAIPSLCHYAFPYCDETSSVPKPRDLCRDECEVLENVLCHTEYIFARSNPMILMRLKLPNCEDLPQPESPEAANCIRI

B1: Clone F anti-ROR1 antibody (whole immunoglobulin) (antibody, V domains shown)
VH: EVQLVESGGGLVQPGRSLKLSCAASGFIFSEHNMAWVRQAPKKGLEWVATISDDGRNTYYRDSMRGRFTISRENARSTLYLQLDSLRSEDTATYYCASHRYNLFDSWGQGVMVTVSS
VL: DIQMTQSPSFLSASVGDRVTINCKASQNIDRYLNWYQQKLGEAPKRLLYNTNKLQTGIPSRFSGSGSATDFTLTISSLQPEDFATYFCLQYNSLPLTFGSGTKLEIK
notes: Rat variable domains; also called clone F antibody
Turning to B1, the binding result is listed as “no binding”.
